Tests used:
PDIA6 a^0 domain (human) = assay: co-sedimentation
native MS = target: the molecule itself; assay: native MS

Row | b amount left in the supernatant (PDIA6 a^0 domain (human)) [%] | Molecule | stoichiometry N (native MS)
1 | 60 | MBP fusion protein of PDIA6 b domain (domain or fragment) | –
2 | – | PDIA6 (enzyme, human, UniProt Q15084 20-440, looked up) LYSSSDDVIELTPSNFNREVIQSDSLWLVEFYAPWCGHCQRLTPEWKKAATALKDVVKVGAVDADKHHSLGGQYGVQGFPTIKIFGSNKNRPEDYQGGRTGEAIVDAALSALRQLVKDRLGGRSGGYSSGKQGRSDSSSKKDVIELTDDSFDKNVLDSEDVWMVEFYAPWCGHCKNLEPEWAAAASEVKEQTKGKVKLAAVDATVNQVLASRYGIRGFPTIKIFQKGESPVDYDGGRTRSDIVSRALDLFSDNAPPPELLEIINEDIAKRTCEEHQLCVVAVLPHILDTGAAGRNSYLEVLLKLADKYKKKMWGWLWTEAGAQSELETALGIGGFGYPAMAAINARKMKFALLKGSFSEQGINEFLRELSFGRGSTAPVGGGAFPTIVEREPWDGRDGELPVEDDIDLSDVELDDLGKDEL | 2

Reference: article doi:10.1101/2024.07.30.605722 (bioRxiv, 2024)
